3 molecules from patent US9750814B2, “Polypeptides to inhibit epstein barr viral protein BHRF1 and B cell lymphoma family proteins” (priority 2014, dated 2017) can be followed below.

In data set [1] the test system is Bim association with pro-survival homologs in HeLa cells. In words: Bim co-immunoprecipitation in HeLa cells. Type of data set: cell-based, human. The protocol: Cells were harvested, washed with PBS, and extracted with ice-cold Chaps buffer (40 mM Tris-HCl, pH 7.5, 150 mM NaCl, 1 mM EDTA, 2% CHAPS, and Complete Protease Inhibitors [Roche]) for 20 minutes, on ice. Extracts were spun down at 10,000 g for 10 min and supernatants were removed and used for SDS-PAGE analysis. Expression of proteins of interest was analyzed using antibodies against Bcl-2, Bcl-xL, Mcl-1 (as above), Bfl-1 (ProsSci, Inc.), Bim (BD Biosciences), and tubulin (SigmaAldrich). For immunoprecipitation experiments, 1,000 μg protein lysates were pre-cleared and then incubated with 3 μg Bim antibody for 2 hours at 4° C., followed by addition of Protein A/G Plus agarose beads (Santa Cruz Biotechnology) and overnight incubation with rotation at 4° C. Negative control reactions used normal IgG. Immunoprecipitates were washed four times with lysis buffer and eluted with loading buffer at 95° C., 2 times for 10 min, followed by SDS-PAGE analysis.

The next data set has as its system Mcl-1-dependent MEF line. In words: Long-term survival (colony) assay, Mcl-1-dependent MEFs. Type of data set: cell-based, mouse. The conditions noted are these: seven day colony survival, doxycycline-induced expression. From the text: (§1) Mouse embryonic fibroblasts were generated from E13-E14.5 embryos derived from CreERT2/Bcl-x^fl/fl/Mcl-I^fl/fl C57BL/6 mice (Kelly et al., 2014) and immortalized (at passage 2-4) with SV40 large T antigen. Retroviral expression constructs in the pMIG vector (Murine Stem Cell Virus-IRES-GFP) expressing each FLAG-tagged pro-survival protein were transiently transfected using LIPOFECTAMINE™ (Invitrogen), into Phoenix ecotropic packaging cells. Filtered virus-containing supernatants were used to infect the MEFs by spin inoculation as previously described (Lee et al., 2008). Cells stably expressing each pro-survival protein were selected by sorting GFP^+ve cells 24 hours after spin inoculation and protein expression verified by Western blotting using an anti-FLAG antibody. Following verification of exogenous pro-survival protein expression, each cell line was treated with 1 μM Tamoxifen (Sigma-Aldrich) to enable deletion of endogenous Mcl-1 and Bcl-xL. Deletion of endogenous Mcl-1 and Bcl-xL was shown by Western blotting using anti-Mcl-1 (Rockland Clone, 600-401-394) and anti-Bcl-xL (BD Transduction Laboratories Clone 44/Bcl-x) antibodies. Cells were maintained in DME Kelso medium supplemented with 10% (v/v) fetal bovine serum, 250 mM L-asparagine and […] 2-mercaptoethanol.
(§2) Inducible αMCL1 and αBFL1 constructs were generated in a lentiviral vector described in Aubrey et al. (2015). […]

A further data set addresses T1, Mcl-1 (Homo sapiens, UniProt Q07820).
T1 construct: Mcl-1 a.a; made in house; host or cells: E. coli BL21* (DE3)
Nature of the data set: Bio-layer interferometry (BLI), immobilized Mcl-1. Type of data set: binding. Conditions: BLI titrations. From the text: 11-175 (NP_065129.1), Mcl-1 a.a. […] For later BLI analysis, Bcl-B and Bfl-1 were genetically fused to C-terminal maltose-binding-protein with an avi-6his tag for improved solution properties. Codon usage was optimized for E. coli expression. […] The genes for individually-tested designed proteins were assembled from oligos (Hoover and Lubkowski, 2002) and cloned into pET29b (NdeI-XhoI sites) with C-terminal 6his tags for purification from E. coli, or cloned into PETCON (NdeI-XhoI sites; (Fleishman et al., 2011)) for yeast surface expression. Alternative tags were added using PCR methods. Point mutations were made by overlapping PCR (Procko et al., 2013). Error-prone PCR with an average error rate of 1.3 amino acid substitutions per clone used GeneMorph II Random Mutagenesis (Agilent Technologies).
Purified avi-6his-tagged ligands (20 μM) in reaction buffer (250 mM potassium glutamate, 20 mM Tris-Cl [pH 7.5], 50 mM bicine [pH 8.3], 10 mM ATP, 10 mM MgOAc, 100 μM d-biotin) were enzymatically biotinylated with 150 U/μl BirA (Avidity) at room temperature overnight, followed by purification with NiNTA-agarose and SEC. Biotinylated ligands were stored at 4° C. in 150 mM NaCl, 20 mM Tris-Cl (pH 7.5), 1 mM DTT, 0.02% sodium azide.
Data were collected on an Octet RED96 (Forte Bio) and processed using the instrument's integrated software. […] Biosensors were dipped in solutions containing the analyte of interest to measure association, and transferred back to empty binding buffer for monitoring dissociation. Kinetic constants were determined from the mathematical fit of a 1:1 binding model.

A further data set relates to BCL2 family proteins. In words: BLI specificity across BCL2 family proteins (next tightest binder versus intended target). Also noted: species or system human. Conditions: fold weaker affinity for next tightest binding BCL2 family protein versus intended target.
Another data set deals with colon cancer cell lines. In words: Long-term survival assay, colon cancer cell lines. In kind it is cell-based, human. The protocol:
Inducible αMCL1 and αBFL1 constructs were generated in a lentiviral vector described in Aubrey et al. (2015). Ligand expression is linked via the T2A peptide to mCherry™ fluorescent reporter protein. […] Viral supernatants were then filtered prior to target cell transduction. […] For infection of MEFs and colon cancer cell lines, equal volume of virus-containing supernatant was added to target cells pre-incubated with 10 ng/μL polybrene, and centrifuged at 2500 rpm for 2 hours at 32° C. Following spin inoculation, cells were then incubated overnight at 37° C. Cells expressing the doxycycline-inducible constructs were then selected by sorting mCherry^+ve cells. MEFs were maintained in DME Kelso medium supplemented with 10% (v/v) FBS, 250 mM L-asparagine and […] 2-mercaptoethanol. Colon cancer cell lines were maintained in DMEM/F-12 supplemented with 10% (v/v) FBS.
MEF and colon cancers were seeded in 6-well tissue culture plates in 2 mL culture media at 150 cells per mL. The next day and every 48 hours following, doxycycline was added at a final concentration of 1 μg/mL to each well, while nothing was added to control wells.

Another data set deals with Bfl-1-dependent MEF line. In words: Long-term survival (colony) assay, Bfl-1-dependent MEFs. Type of data set: cell-based, mouse. Conditions: seven day colony survival, doxycycline-induced expression.
Excerpt: as §1, §2

Data set [2] is classed as physicochemical. On the procedure:
CD spectra were recorded with a Model 420 spectrometer (AVIV Biomedical) or a J-1500 Circular Dichroism Spectrometer (JASCO). Unless stated otherwise, proteins were at 20 μM in PBS and data were collected at 25° C.

The next data set has as its target BHRF1 (Epstein-Barr virus, UniProt P03182). Conditions: FACS sort for binding signal after 400 nM BHRF1.

Chain of BHRF1 (P03182 1-161): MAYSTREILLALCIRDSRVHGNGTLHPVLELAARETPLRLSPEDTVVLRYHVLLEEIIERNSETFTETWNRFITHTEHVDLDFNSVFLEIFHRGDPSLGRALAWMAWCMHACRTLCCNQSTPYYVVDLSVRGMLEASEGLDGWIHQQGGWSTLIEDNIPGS
T1 sequence (Q07820 172-327): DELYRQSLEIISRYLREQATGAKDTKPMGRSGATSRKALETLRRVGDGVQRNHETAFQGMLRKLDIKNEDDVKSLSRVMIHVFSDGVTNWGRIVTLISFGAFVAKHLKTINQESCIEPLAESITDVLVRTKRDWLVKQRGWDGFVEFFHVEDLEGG
Excerpt for BHRF1: This was reduced to 74 designs (Indexes-01 to 74) after filtering for strong interface binding energy, low monomer folding energy and a low number of buried unsatisfied hydrogen bonding atoms. Barcoded genes were synthesized (Table 3) and the library transformed in to yeast for surface display (6×10^5 transformants). […] The library was sorted by a single round of FACS for cells expressing surface protein (FIG. 1C; lane 1), for the 2% of cells with highest expression (lane 2), and for cells showing binding signal after incubation with 100 nM (lane 3) or 400 nM BHRF1 (lane 4). DNA from the naive and post-sorted populations was harvested and sequenced by Illumina deep sequencing, and the recovery of each designed sequence determined.
Binding of biotinylated protein to the yeast surface is detected with phycoerythrin-conjugated streptavidin (Invitrogen).
Yeast cells were sorted on a BD Influx cytometer operated by Spigot (BD Biosciences) and recovered in SDCAA media at 30° C. overnight. Yeast were lysed with 125 U/ml Zymolase at 37° C. for 5 h, and DNA was harvested (Zymoprep kit from Zymo Research). […] DNA was deep sequenced with a MiSeq™ sequencer (Illumina) and sequences were analyzed with adapted scripts from Enrich (Fowler et al., 2011). […]

B1: MINDI: SEQ ID NO: 2; target Mcl-1 (protein)
chain: ADPKKVLDKAKDQAENRVRELKQVLEELYKEARKLDLTQEMRKKLIERYAAAIIRAIGDINNAIYQAKQEAEKLKKAGLVNSQQLDELLRRLDELQKEASRKANEYGREFELKLEY
For the molecule B1, the “effect on Bim binding profile” value in data set [1] (Bcl-2+ HeLa cells) was “no effect”; in data set [1] (wild-type HeLa cells), “displacement of Bim from Mcl-1”. The molecule further showed a decrease in survival in the data set on Mcl-1-dependent MEF line of 90±11%. The “affinity for other BCL2 family members relative to Mcl-1” value with Mcl-1 is reported as “over ten thousand-fold weaker affinity”. In the data set with BCL2 family proteins, the Specificity was 93,000. Also, the “effect on long-term survival (in words)” value in the data set with colon cancer cell lines (colon cancer lines) is “negligible effect”.

B2: FINDI: SEQ ID NO: 6; target Bfl-1 (protein)
chain: ADPKKVLDKAKDQAENRVRELKQKLEELYKEARKLDLTQEKRKKLEVATLGAVLAAHGDILNAIMQAKEEADKLKKAGLVNSQQLDELKRRLEELKEEALRKASDYGNEFHLKRRY
In the data set with Bfl-1-dependent MEF line, B2 had a decrease in survival of 85±6%. Also, the “protein stability relative to the original computational design” value in data set [2] is on record as “slightly to moderately decreased”. Also, in the data set with colon cancer cell lines (long-term survival assay), the “decrease in RKO cell survival” value is 63±4%.

B3: Index 21: SEQ ID NO: 113; computational precursor for BbpD04 (protein)
chain: GFDWKKVLDKAKDLAENDVREAKQKLEEFYKKAMKLDLTQEMRRKLMLEWIAAMLMAIGDIFNAIEQGKQEADKLKKLGKVLSQLLDELKRRLEELKEEAALKAHDFGREFELKLLFG
modifications: optionally absent
In the case of B3, the “Log2 Enrichment Ratio: 400 nM BHRF1” value in the data set with BHRF1 is “BHRF1 −2.81”.
